T1: Escherichia coli YcbB (residue 31 onward), fluorescently labelled with Alexa Fluor 647 (Escherichia coli, UniProt P22525 31-615, Alexa Fluor 647 NHS Ester label (sites not given))
T1 construct: L,D-transpeptidase YcbB (LdtD), E. coli, without its signal peptide (residues 1-30), residue 31 onward; Same construct as m1, labelled for the MST with PBP5; also called fluorescently labelled YcbB; source: E. coli BL21 (DE3), purified (HisTrap Ni2+, SEC Superdex 200), then labelled; not shown: His8, C-terminal, cleaved
T1 sequence: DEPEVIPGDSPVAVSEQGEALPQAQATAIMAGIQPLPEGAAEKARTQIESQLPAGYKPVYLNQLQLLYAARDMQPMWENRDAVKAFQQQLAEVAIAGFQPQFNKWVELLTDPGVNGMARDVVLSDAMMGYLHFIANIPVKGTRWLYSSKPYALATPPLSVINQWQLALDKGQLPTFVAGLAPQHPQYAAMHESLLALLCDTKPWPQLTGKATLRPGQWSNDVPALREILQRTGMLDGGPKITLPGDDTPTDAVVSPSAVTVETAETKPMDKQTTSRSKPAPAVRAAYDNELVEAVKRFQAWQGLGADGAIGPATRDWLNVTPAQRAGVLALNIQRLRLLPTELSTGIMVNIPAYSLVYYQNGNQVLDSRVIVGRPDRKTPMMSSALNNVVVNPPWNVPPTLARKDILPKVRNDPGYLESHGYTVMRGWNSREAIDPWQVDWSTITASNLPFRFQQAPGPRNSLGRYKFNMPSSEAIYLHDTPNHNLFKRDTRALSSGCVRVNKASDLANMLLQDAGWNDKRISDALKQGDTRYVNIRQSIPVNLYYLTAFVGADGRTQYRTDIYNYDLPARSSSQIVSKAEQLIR

T2: Escherichia coli PBP1b from residue 58 onward, styrene-maleic acid co-polymer solubilised, fluorescently … (Escherichia coli, UniProt P02919 58-844, Alexa Fluor 647 NHS Ester label (sites not given))
T2 construct: Held in styrene-maleic acid co-polymer particles; Thrombin-cleavable tag; the purification paragraph calls the removed tag N-terminal, the cloning paragraph C-terminal; also called SMA-solubilised PBP1b; not shown: His8, C-terminal, cleaved
T2 sequence: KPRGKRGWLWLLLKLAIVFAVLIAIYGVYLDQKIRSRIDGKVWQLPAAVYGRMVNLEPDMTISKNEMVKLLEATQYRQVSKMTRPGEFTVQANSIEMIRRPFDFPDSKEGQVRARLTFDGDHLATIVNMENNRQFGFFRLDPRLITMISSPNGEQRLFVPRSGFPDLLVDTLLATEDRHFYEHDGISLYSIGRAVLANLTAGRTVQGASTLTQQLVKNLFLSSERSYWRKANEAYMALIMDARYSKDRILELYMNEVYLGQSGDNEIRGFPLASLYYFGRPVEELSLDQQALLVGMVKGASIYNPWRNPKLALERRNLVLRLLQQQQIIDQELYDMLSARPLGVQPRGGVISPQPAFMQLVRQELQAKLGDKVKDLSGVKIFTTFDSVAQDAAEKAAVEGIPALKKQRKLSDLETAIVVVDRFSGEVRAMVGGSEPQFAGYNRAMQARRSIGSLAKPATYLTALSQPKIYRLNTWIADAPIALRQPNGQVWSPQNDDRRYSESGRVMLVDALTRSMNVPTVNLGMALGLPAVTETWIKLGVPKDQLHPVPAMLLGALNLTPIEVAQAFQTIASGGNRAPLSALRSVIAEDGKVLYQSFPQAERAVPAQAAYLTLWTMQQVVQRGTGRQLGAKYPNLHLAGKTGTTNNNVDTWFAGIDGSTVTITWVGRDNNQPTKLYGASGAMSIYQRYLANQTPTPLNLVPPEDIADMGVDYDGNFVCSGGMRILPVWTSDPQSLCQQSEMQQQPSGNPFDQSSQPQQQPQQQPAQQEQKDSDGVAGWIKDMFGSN

B1: Escherichia coli PBP5 from residue 30 onward (enzyme)
chain: DDLNIKTMIPGVPQIDAESYILIDYNSGKVLAEQNADVRRDPASLTKMMTSYVIGQAMKAGKFKETDLVTIGNDAWATGNPVFKGSSLMFLKPGMQVPVSQLIRGINLQSGNDACVAMADFAAGSQDAFVGLMNSYVNALGLKNTHFQTVHGLDADGQYSSARDMALIGQALIRDVPNEYSIYKEKEFTFNGIRQLNRNGLLWDNSLNVDGIKTGHTDKAGYNLVASATEGQMRLISAVMGGRTFKGREAESKKLLTWGFRFFETVNPLKVGKEFASEPVWFGDSDRASLGVDKDVYLTIPRGRMKDLKASYVLNSSELHAPLQKNQVVGTINFQLDGKTIEQRPLVVLQEIPEGNFFGKIIDYIKLMFHHWFG
notes: HRV 3C protease-cleavable tag; the purification paragraph calls the removed tag N-terminal, the cloning paragraph C-terminal; also called D,D-carboxypeptidase PBP5; source: E. coli BL21 (DE3), purified (HisTrap Ni2+, SEC Superdex 200); not shown: His8, C-terminal, cleaved
B2: Escherichia coli YcbB without its signal peptide (residue 31 onward) (enzyme)
chain: T1 sequence
notes: L,D-transpeptidase YcbB (LdtD), E. coli, without its signal peptide (residues 1-30), residue 31 onward; Unlabelled form: titrant in the MST with PBP1b and the protein that was crystallised (there acylated by meropenem on Cys528); Vector named pET41b-GST; no GST on the protein is spoken of; Thrombin-cleavable tag; the purification paragraph calls the removed tag N-terminal, the cloning paragraph …

Tests used:
[1] = target: T1, Escherichia coli YcbB (residue 31 …); assay: MST; Monolith NT.115Pico; unlabelled PBP5 (120 pM-98 uM) titrated into Alexa Fluor 647-labelled YcbB at 15 nM; Buffer C; analysed using MST; binding isotherm with adjustable Hill coefficient; settings: both partners purified
[2] = target: T2, Escherichia coli PBP1b from residue 58 …; assay: MST; Monolith NT.115Pico; unlabelled YcbB (1.5 nM-3.1 uM) titrated into Alexa Fluor 647-labelled SMA-solubilised PBP1b at 100 nM; Buffer C; analysed using fluorescence values; binding isotherm with adjustable Hill coefficient; settings: both partners purified

Binder | Kd [1] [µM] | Kd [2] [µM]
B1 | ~2 | 
B2 |  | 0.25 ± 0.03

— PMC6478713, “Structural insight into YcbB-mediated beta-lactam resistance in Escherichia coli” (Nature Communications, 2019)
